These results are taken from paper PMC3918160, “Biochemical studies of the multicopper oxidase (small laccase) from Streptomyces coelicolor using bioactive phytochemicals and site-directed mutagenesis” (Microbial Biotechnology, 2013).

Substrate in the data set “purified protein”: O=c1c(O)c(-c2cc(O)c(O)c(O)c2)oc2cc(O)cc(O)c12
Description: purified protein. Particulars: 60°C, optimal pH for the substrate, 5% (v/v) DMSO.

Substrate in data set [1]: CCn1c(=NN=c2sc3cc(S(=O)(=O)O)ccc3n2CC)sc2cc(S(=O)(=O)O)ccc21
In words: initial rates, absorbance, Michaelis-Menten fit. Conditions: 60°C, optimal pH for the substrate. The data set is classed as biochemical, Streptomyces coelicolor.

Substrate in data set [2]: COc1cccc(OC)c1O
In words: initial rates, absorbance, Michaelis-Menten fit. The data set is classed as biochemical, Streptomyces coelicolor. Conditions: 60°C, optimal pH for the substrate.

Substrate in data set [3]: O=c1c(O)c(-c2ccc(O)c(O)c2)oc2cc(O)cc(O)c12
Description: initial rates, absorbance, Michaelis-Menten fit. Conditions: 60°C, optimal pH for the substrate, 5% (v/v) DMSO. The data set is classed as biochemical, Streptomyces coelicolor.

Substrate in data set [4]: O=c1c(O)c(-c2ccc(O)cc2O)oc2cc(O)cc(O)c12
Description: initial rates, absorbance, Michaelis-Menten fit. The data set is classed as biochemical, Streptomyces coelicolor. Particulars: 60°C, optimal pH for the substrate.

Where a chain is given by its changes, count along the chain named. In names and notes the source's numbering stands.

B1: small laccase (SLAC), SCO6712 (Streptomyces coelicolor A3(2)) (protein)
chain: AKGITARTAPAGGEVRHLKMYAEKLADGQMGYGFEKGKASVPGPLIEVNEGDTLHIEFTNTMDVRASLHVHGLDYEISSDGTAMNKSDVEPGGTRTYTWRTHKPGRRDDGTWRPGSAGYWHYHDHVVGTEHGTGGIRNGLYGPVIVRRKGDVLPDATHTIVFNDMTINNRKPHTGPDFEATVGDRVEIVMITHGEYYHTFHMHGHRWADNRTGILTGPDDPSRVIDNKITGPADSFGFQIIAGEGVGAGAWMYHCHVQSHSDMGMVGLFLVKKPDGTIPGYEPHEHGGATAKSGESGEPTGGAAAHEHEH
On to B1, for which the Km amounted to 900 ± 300 µM in “purified protein”; 800 ± 100 µM in data set [1] (universal buffer); 1100 ± 200 µM in data set [2] (universal buffer); 1200 ± 400 µM in data set [3]; 1500 ± 200 µM in data set [4] (5% (v/v) DMSO). In addition, the kcat in the data set “purified protein” came out at 8.1 ± 0.8 s⁻¹.

B2: small laccase (SLAC), SCO6712 (Streptomyces coelicolor A3(2); S292A) (protein)
chain: B1 chain with S259A
For B2, the values for the Km in data set [1], in data set [2] and in data set [4] (DMSO) were 2400 ± 200 µM, 120 ± 20 µM and 1600 ± 400 µM, respectively. Also, the kcat turned out to be 11.1 ± 0.3 s⁻¹ in data set [1], 0.93 ± 0.02 s⁻¹ in data set [2] and 4.0 ± 0.4 s⁻¹ in data set [4] (DMSO).
